Columns and labels:
[1] = biological target: His-tagged α subunit of acetyl-CoA carboxylase (AccA), biotinylated (Streptomyces hygroscopicus var. ascomyceticus FS35)
[2] = biological target: His-tagged α subunit of acetyl-CoA carboxylase (AccA), biotinylated (Streptomyces hygroscopicus var. ascomyceticus FS35); remark: listed apart in the source

in vitro activity of ACC in the coupled enzyme assay with 5 μM GlnB, against 100% without GlnB [1]: 54.2%
in vitro activity of PCC in the coupled enzyme assay with 5 μM GlnB, against 100% without GlnB [1]: 76.5%
maximal calculated inhibition of ACC by GlnB at rising concentrations (from 0 μM, stable above 1.5 μM), without 2-OG [2]: 50%
maximal calculated inhibition of PCC by GlnB at rising concentrations (from 0 μM, stable above 1.5 μM), without 2-OG [2]: 24.7%
B1: GlnB protein (PII signal transduction protein encoded by gene 1_2537), native (untagged) (natural protein)
chain: MSIKAEYIWIDGTQPTAKLRSKTKILSDGSRLPRWGFDGSSTNQAEGHASDLVLEPVFSCPDPIRGGDHLLVLCEVLHTDLTPHPSNTRALLRPVAERFAGQEPIFGIEQEYTFLKGDRPLGFPEGGGYPAPQADYYCGVGADAIFGREIVEKHLDLCLAAGLGLSGINAEVMPGQWEFQVGALPPLEVSDHMWVARWLLHRVAEEFGVTASLDAKPAKGDWNGAGAHTNFSTRAMREGYDPIITACEALGQDDKPLEHVRQYGTGIEDRLTGAHETAPWDAYSYGASDRGASVRIPWQVEVEKKGYIEDRRPNANVDPYVVTRLMVDTCCTELARREQI

Reference: paper PMC8187598
